These results are taken from US20210063414A1, “METHODS FOR PREVENTING AND/OR TREATING BONE LOSS CONDITIONS BY MODULATING IRISIN” (Dana-Farber Cancer Institute, Inc., priority 2018, published 2021).

The target of this assay is T1, MLO-Y4 cell surface proteins (Mus musculus, UniProt P70388).
T1 construct: endogenous in cells; host or cells: MLO-Y4
T1 sequence (P70388 1-1312): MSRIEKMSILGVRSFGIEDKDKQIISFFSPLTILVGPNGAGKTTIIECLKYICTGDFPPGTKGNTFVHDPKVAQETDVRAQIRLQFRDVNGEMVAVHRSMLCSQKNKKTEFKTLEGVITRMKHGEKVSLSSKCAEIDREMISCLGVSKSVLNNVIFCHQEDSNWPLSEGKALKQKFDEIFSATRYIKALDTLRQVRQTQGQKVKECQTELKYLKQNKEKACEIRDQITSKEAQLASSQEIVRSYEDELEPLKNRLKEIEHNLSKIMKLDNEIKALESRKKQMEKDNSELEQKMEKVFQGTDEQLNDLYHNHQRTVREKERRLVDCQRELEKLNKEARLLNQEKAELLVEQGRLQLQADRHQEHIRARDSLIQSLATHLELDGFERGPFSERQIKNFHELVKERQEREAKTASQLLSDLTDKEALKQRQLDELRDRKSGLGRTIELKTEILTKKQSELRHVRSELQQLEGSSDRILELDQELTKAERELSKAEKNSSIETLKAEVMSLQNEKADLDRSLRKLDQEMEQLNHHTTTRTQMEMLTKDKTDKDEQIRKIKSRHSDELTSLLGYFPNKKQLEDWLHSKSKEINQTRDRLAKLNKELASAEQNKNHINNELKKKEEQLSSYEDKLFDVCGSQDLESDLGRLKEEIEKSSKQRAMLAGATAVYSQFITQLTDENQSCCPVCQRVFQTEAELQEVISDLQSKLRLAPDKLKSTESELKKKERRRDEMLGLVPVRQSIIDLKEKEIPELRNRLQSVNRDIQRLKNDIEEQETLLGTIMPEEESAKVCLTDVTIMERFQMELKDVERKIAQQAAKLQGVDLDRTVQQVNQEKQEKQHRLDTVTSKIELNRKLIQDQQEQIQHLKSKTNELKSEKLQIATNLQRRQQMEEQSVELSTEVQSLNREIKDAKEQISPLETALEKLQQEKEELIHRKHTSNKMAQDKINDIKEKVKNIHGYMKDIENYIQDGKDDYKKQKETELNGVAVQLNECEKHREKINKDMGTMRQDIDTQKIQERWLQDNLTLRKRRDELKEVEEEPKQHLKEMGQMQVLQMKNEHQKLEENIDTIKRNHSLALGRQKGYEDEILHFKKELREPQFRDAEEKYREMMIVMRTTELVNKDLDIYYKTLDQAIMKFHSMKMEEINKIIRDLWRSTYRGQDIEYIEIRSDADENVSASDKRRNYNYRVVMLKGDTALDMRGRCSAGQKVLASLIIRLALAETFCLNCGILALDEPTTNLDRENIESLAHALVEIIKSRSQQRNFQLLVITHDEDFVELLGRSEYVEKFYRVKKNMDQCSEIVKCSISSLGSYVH
Nature of the assay: Crosslinking/co-immunoprecipitation/mass spectrometry (TMT quantitative proteomics) to identify irisin receptors. Type of assay: binding. To be noted: co-precipitated protein Rad50 (RAD50_MOUSE). Summed up: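 Relative protein abundance came from 6-plex TMT MS3 quantitation on an Orbitrap Fusion Lumos, after in-gel trypsin digestion of Coomassie-stained SDS-PAGE lanes. Input was a Ni-NTA pulldown (250 mM imidazole elution) of lysates from murine MLO-Y4 cells. These cells were treated on ice with His-tagged irisin or adipsin (10 nM, 20 min) in serum-free medium, then crosslinked with 1.5 mM DTSSP for 30 min.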

Turning to adipsin, the TMT signal-to-noise ratio is recorded as 422.246.
